Results on seven compounds are retold here after patent US8551717B2, “Method for determining sumoylation” (Medizinische Hochschule Hannover, priority 2008, dated 2013).

Assay [1] deals with p53-FRB and p53-FKBP. The assay can be described thus: USDDS: AP21967-induced in vivo SUMOylation of p53 fusion proteins, western blot. The class given is cell-based, human. Particulars: HEK293. From the text:
(§1) To identify new SUMOylation substrates and to study the function of SUMOylation the Ubc9/substrate dimerisation-dependent SUMOylation system (USDDS) was developed which consists of fusions of the SUMOylation substrate and of the SUMO-conjugating enzyme Ubc9 to the chemically activatable heterodimerisation domains FKBP and FRB, respectively, as shown in FIG. 2. When the substrate protein fused to FKBP is coexpressed with Ubc9-FRB, treatment of HEK293 cells with the rapamycin-related dimerizer AP21967 induces SUMOylation of the substrate protein fused to FKBP at its specific SUMOylation site. […] Dependent on an EcoRl site in the coding sequence, seven C-terminal amino acids of the human STAT1a in the STAT1-FKBP/FRB fusion proteins are missing. For the SUMOylation analysis HEK293 (human embryonic kidney cells) cells have been used. HEK293 cells were cultured in Dulbecco's modified Eagle's medium with high glucose, complemented with 10% fetal calf serum, 2 mM L-glutamine, 100 U/ml penicillin and […] streptomycin. We performed transfection of HEK293 cells using the polyethylenimine transfection reagent. HEK293 cells of a fresh confluent 10 cm plate were transferred on a 12-well plate. […]
(§2) When p53-FRB or STAT1-FRB were coexpressed with Ubc9-FKBP together with EGFP-SUMO1, no significant EGFP-SUMO1 conjugation of STAT1-FRB and of p53-FRB could be detected (FIG. 3A,B). […]

For assay [2], the target named is T1, STAT1-FRB and STAT1-FKBP (Homo sapiens, UniProt P42224+P42345+P62942).
T1 construct: seven C-terminal amino acids of the human STAT1a in the STAT1-FKBP/FRB fusion proteins are missing; FKBP domain (in STAT1-FKBP); expressed in transfected cells; host or cells: HEK293
T1 sequence (P42224 1-743 limits assumed): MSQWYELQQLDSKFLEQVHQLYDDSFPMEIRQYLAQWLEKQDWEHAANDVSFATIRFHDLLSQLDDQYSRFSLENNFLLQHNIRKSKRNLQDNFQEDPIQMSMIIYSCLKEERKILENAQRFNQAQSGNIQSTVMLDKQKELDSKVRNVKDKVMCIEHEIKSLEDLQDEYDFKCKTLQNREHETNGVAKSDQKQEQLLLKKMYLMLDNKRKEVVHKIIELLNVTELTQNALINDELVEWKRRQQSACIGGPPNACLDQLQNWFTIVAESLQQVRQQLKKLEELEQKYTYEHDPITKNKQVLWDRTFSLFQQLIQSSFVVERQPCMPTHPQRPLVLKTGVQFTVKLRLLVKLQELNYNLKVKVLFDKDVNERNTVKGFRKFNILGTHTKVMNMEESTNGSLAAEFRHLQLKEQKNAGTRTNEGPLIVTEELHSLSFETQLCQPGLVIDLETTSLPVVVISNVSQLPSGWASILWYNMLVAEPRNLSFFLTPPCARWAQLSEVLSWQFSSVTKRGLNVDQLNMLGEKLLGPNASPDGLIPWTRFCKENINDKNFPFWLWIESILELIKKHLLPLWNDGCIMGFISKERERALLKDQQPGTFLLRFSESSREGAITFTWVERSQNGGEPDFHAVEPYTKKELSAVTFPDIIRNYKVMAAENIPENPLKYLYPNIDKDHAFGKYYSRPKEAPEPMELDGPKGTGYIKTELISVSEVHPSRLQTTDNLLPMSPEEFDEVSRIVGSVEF
T1 sequence (P63279 whole entry partner, the tested form may be a part): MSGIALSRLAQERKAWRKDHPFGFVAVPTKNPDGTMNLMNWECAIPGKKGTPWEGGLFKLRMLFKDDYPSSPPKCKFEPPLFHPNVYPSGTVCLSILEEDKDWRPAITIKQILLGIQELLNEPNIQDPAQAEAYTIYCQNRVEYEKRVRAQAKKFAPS
T1 sequence (P62942 2-108 limits assumed): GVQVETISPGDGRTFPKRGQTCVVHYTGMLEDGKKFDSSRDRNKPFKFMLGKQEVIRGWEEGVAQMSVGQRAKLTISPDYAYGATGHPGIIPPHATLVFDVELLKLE
T1 sequence (P42345 2021-2113 limits assumed): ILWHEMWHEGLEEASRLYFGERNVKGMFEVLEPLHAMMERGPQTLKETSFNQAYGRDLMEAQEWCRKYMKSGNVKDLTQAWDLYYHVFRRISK
The assay can be described thus: USDDS: AP21967-induced in vivo SUMOylation of STAT1 fusion proteins, western blot. The class given is cell-based. Particulars: HEK293.
Source text: as §1, §2
For orientation: In western blotting, separated proteins are transferred to a membrane and probed.

Assay [3] addresses T2, U-p38α (Homo sapiens, UniProt P63279+Q16539).
T2 construct: expressed in transfected cells; host or cells: HEK293
Description: Trans-SUMOylation by U-p38α. The class given is cell-based. Particulars: protein 2 construct coexpressed with U-p38α and EGFP-SUMO1 in HEK293.

The target in assay [4] is T3, U-MK2 (Homo sapiens, UniProt P49137+P63279).
T3 construct: expressed in transfected cells; host or cells: HEK293
T3 sequence (P63279+P49137 fused): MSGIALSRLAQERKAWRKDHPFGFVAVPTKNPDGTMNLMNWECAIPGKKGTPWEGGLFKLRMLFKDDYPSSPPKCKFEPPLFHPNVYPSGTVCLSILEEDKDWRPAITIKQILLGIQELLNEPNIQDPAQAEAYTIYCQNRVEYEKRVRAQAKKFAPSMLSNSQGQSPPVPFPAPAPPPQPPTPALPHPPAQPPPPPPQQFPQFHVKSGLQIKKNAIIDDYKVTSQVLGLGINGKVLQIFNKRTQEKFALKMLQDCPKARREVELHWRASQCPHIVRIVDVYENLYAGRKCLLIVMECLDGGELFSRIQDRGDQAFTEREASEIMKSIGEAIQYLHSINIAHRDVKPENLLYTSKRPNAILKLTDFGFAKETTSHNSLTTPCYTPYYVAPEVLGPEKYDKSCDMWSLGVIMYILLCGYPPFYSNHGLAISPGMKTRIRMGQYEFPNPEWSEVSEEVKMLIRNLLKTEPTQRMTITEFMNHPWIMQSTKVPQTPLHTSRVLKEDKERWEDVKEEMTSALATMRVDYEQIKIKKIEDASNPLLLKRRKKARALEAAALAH
The assay can be described thus: Trans-SUMOylation by U-MK2. In kind it is cell-based. Particulars: protein 2 construct coexpressed with U-MK2 and EGFP-SUMO1 in HEK293.

The target of assay [5] is T4, p53-U (Homo sapiens, UniProt P04637+P63279).
T4 construct: expressed in transfected cells; host or cells: HEK293
Description: Trans-SUMOylation by p53-U. Particulars: western blot. In kind it is cell-based.

In assay [6] the target is T5, MK2-U (Homo sapiens, UniProt P49137+P63279).
T5 construct: expressed in transfected cells; host or cells: HEK293
T5 sequence (P49137+P63279 fused): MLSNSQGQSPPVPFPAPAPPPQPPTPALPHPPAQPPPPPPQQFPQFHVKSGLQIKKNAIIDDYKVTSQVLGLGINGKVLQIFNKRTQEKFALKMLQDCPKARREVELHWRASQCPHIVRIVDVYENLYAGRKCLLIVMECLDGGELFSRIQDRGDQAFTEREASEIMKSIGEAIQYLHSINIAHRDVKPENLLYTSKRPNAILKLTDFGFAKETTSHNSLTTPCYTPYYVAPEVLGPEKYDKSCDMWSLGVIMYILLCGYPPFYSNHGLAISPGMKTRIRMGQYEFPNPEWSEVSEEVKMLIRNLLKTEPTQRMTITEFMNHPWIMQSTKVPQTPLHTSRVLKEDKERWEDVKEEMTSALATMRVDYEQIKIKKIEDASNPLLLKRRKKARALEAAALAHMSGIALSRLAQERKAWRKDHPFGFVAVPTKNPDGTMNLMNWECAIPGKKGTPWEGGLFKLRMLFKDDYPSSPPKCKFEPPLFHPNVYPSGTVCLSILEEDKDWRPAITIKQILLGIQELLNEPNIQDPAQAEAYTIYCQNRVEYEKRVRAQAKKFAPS
The assay can be described thus: Trans-SUMOylation by MK2-U. The class given is cell-based. Particulars: protein 2 construct coexpressed with MK2-U and EGFP-SUMO1 in HEK293.

In assay [7] the target is T6, JUN-U (Homo sapiens, UniProt P05412+P63279).
T6 construct: expressed in transfected cells; host or cells: HEK293
T6 sequence (P05412+P63279 fused): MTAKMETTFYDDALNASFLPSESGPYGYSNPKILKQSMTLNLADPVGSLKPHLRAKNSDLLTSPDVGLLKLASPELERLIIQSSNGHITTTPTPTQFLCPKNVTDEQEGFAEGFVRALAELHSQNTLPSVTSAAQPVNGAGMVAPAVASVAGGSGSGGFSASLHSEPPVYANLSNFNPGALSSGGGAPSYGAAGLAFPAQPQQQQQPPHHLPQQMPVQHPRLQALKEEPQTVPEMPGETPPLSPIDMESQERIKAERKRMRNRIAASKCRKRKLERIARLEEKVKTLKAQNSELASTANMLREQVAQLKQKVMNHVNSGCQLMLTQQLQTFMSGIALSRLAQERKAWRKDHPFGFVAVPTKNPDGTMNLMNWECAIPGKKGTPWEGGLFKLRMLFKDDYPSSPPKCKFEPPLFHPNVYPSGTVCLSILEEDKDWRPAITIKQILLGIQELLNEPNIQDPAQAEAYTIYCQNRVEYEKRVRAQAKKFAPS
The assay can be described thus: Trans-SUMOylation by JUN-U. In kind it is cell-based. Particulars: protein 2 construct coexpressed with JUN-U and EGFP-SUMO1 in HEK293; western blot; Table 2.

In assay [8] the target is T7, U-MK5 (Homo sapiens, UniProt P63279+Q8IW41).
T7 construct: expressed in transfected cells; host or cells: HEK293
T7 sequence (P63279+Q8IW41 fused): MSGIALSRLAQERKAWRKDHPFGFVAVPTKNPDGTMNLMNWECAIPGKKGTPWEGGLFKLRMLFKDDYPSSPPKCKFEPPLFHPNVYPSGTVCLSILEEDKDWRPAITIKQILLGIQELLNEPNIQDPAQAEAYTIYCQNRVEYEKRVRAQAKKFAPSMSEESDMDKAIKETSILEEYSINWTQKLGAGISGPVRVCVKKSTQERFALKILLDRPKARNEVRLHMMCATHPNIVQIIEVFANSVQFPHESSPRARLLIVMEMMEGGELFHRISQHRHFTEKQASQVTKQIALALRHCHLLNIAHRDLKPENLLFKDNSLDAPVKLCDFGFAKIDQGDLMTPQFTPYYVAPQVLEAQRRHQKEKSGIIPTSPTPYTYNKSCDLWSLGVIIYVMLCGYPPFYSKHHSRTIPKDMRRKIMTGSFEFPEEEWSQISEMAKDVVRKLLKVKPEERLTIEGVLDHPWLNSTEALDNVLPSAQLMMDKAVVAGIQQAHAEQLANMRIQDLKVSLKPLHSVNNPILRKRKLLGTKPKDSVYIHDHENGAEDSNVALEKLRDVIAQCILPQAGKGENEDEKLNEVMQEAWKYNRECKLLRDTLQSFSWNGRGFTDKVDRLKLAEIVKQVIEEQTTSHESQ
Description: Trans-SUMOylation by U-MK5. In kind it is cell-based. Set-up: key: (++), strong TransSUMOylation; (+), TransSUMOylation; (+/−) weak TransSUMOylation; (−) no detectable TransSUMOylation. Particulars: protein 2 construct coexpressed with U-MK5 and EGFP-SUMO1 in HEK293, western blot. From the text:
To identify new SUMOylation substrates and to study the function of SUMOylation the Ubc9/substrate dimerisation-dependent SUMOylation system (USDDS) was developed which consists of fusions of the SUMOylation substrate and of the SUMO-conjugating enzyme Ubc9 to the chemically activatable heterodimerisation domains FKBP and FRB, respectively, as shown in FIG. 2. When the substrate protein fused to FKBP is coexpressed with Ubc9-FRB, treatment of HEK293 cells with the rapamycin-related dimerizer AP21967 induces SUMOylation of the substrate protein fused to FKBP at its specific SUMOylation site. […] Dependent on an EcoRl site in the coding sequence, seven C-terminal amino acids of the human STAT1a in the STAT1-FKBP/FRB fusion proteins are missing. For the SUMOylation analysis HEK293 (human embryonic kidney cells) cells have been used. HEK293 cells were cultured in Dulbecco's modified Eagle's medium with high glucose, complemented with 10% fetal calf serum, 2 mM L-glutamine, 100 U/ml penicillin and […] streptomycin. We performed transfection of HEK293 cells using the polyethylenimine transfection reagent. HEK293 cells of a fresh confluent 10 cm plate were transferred on a 12-well plate. After 12-24 h incubation about 70% cell confluence is reached. For each well 45 μl of serum/antibiotic free DMEM medium is mixed with 750 ng of the transfection-purity expression vector DNA (all together 47 μl) and vortexed. Then, 3 μl of vortexed polyethylenimin stock solution (1 mg/ml) is added and the mixture is vortexed. After incubation at room temperature for 10 min 450 μl fresh DMEM with antibiotics is added to the mixture and vortexed. The medium on the cells was then completely removed and immediately, the 500 μl transfection mix was added carefully to each well. The 12 well plate was rocked to ensure a proper distribution of the DNA/transfection reagent complex. After an incubation of the cells for 24 h at a 37° C. in a humidified CO2-incubator (5%) the cells were lysed in 150 μl Laemmli (2×) gel loading buffer (160 mM Tris-HCL, pH 6.8, 4% (w/v) sodium dodecyl sulphate (SDS), 20% (v/v) glycerol, 0.5% β-mercaptoethanol (v/v), 0.008% (w/v) bromophenol blue) and incubated for 10 min at 95° C. For western blot analysis the proteins were separated by SDS-PAGE, blotted on a PVDF membrane and developed with specific primary antibodies (α-Ubc9 (H81, Santa Cruz), α-pY701-STAT1 (Tyr701, Cell Signaling), α-STAT1 (Cell Signaling), α-p53 (1C12, Cell Signaling), α-SUMO1 (Cell Signaling), a horseradish peroxidase (HRP)-conjugated secondary antibody (different companies), the ECL+ (Amersham) or Immobilon™ Western (Millipore) and the LAS-3000 imaging system (Fuji).
As shown above, the SUMOylation of a protein of interest can be induced by the heterodimerisation with a binding protein fused to Ubc9. To find out if Trans-SUMOylation is useful for the characterisation of common protein interactions, protein binding pairs well known from the literature or found in two hybrid screens. […] Therefore the protein pairs were coexpressed with EGFP-SUMO1 in HEK293 cells and after 24h the transfectants were lysed and the protein extracts were analyzed in western blots.
Protein-protein interactions described in the cited references were tested for Trans-SUMOylation. Each specific protein-protein interaction was tested by coexpression of different combinations of protein 1 fused to Ubc9 (U) with protein 2 mostly fused two a tag (HA, FLAG, Myc, GST, ST). (++), strong TransSUMOylation; (+), TransSUMOylation; (+/−) weak TransSUMOylation; (−) no detectable TransSUMOylation; (MEKK1ca) the activated MAP3 kinase MEKK1, that can enhance protein SUMOylation, was coexpressed.
Protein-protein interaction of each pair of protein 1/protein 2 was tested by coexpression of different combinations of a protein 1 fused to Ubc9 (U) with protein 2 mostly fused two a Tag (HA, FLAG, GST, ST). […]

Assay [9] addresses T8, U-CSNK2B (Homo sapiens, UniProt P63279+P67870).
T8 construct: expressed in transfected cells; host or cells: HEK293
Description: Trans-SUMOylation by U-CSNK2B. Set-up: key: (++), strong TransSUMOylation; (+), TransSUMOylation; (+/−) weak TransSUMOylation; (−) no detectable TransSUMOylation. Particulars: protein 2 construct coexpressed with U-CSNK2B and EGFP-SUMO1 in HEK293, western blot. The class given is cell-based.
Source text: as §1, with “plate. After 12-24 h incubation about 70% cell confluence is reached. For each well 45 μl of serum/antibiotic free DMEM medium is mixed with 750 ng of the transfection-purity expression vector DNA (all together 47 μl) and vortexed. Then, 3 μl of vortexed polyethylenimin stock solution (1 mg/ml) is added and the mixture is vortexed. After incubation at room temperature for 10 min 450 μl fresh DMEM with antibiotics is added to the mixture and vortexed. The medium on the cells was then completely removed and immediately, the 500 μl transfection mix was added carefully to each well.” for “plate.”
(§3) As shown above, the SUMOylation of a protein of interest can be induced by the heterodimerisation with a binding protein fused to Ubc9. […] Therefore the protein pairs were coexpressed with EGFP-SUMO1 in HEK293 cells and after 24h the transfectants were lysed and the protein extracts were analyzed in western blots. […]

Assay [10] has as its target T9, U-PSMC3 (Homo sapiens, UniProt P17980+P63279).
T9 construct: expressed in transfected cells; host or cells: HEK293
Description: Trans-SUMOylation by U-PSMC3. The class given is cell-based. Set-up: key: (++), strong TransSUMOylation; (+), TransSUMOylation; (+/−) weak TransSUMOylation; (−) no detectable TransSUMOylation. Particulars: protein 2 construct coexpressed with U-PSMC3 and EGFP-SUMO1 in HEK293; western blot; Table 1.
Source text: as §1, with “streptomycin.” for “streptomycin. We performed transfection of HEK293 cells using the polyethylenimine transfection reagent. HEK293 cells of a fresh confluent 10 cm plate were transferred on a 12-well plate.”
as §3

[11] abbreviates: protein 2 construct coexpressed with P53-U (p53-U) and EGFP-SUMO1 in HEK293, Table 1.

T2 sequence (P63279+Q16539 fused): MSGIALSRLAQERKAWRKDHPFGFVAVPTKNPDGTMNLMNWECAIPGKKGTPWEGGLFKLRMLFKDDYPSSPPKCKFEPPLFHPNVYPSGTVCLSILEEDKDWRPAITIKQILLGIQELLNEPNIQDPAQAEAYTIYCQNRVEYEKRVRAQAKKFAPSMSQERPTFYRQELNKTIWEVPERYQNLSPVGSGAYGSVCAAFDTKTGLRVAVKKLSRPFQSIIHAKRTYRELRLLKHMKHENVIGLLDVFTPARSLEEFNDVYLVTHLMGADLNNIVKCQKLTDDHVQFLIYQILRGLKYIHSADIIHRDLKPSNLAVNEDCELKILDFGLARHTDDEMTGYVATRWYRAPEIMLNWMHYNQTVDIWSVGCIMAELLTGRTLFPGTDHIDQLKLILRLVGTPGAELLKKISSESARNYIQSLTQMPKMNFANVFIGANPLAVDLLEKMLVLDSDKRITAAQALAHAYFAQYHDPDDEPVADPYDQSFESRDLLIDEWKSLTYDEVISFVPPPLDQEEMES
T8 sequence (P63279+P67870 fused): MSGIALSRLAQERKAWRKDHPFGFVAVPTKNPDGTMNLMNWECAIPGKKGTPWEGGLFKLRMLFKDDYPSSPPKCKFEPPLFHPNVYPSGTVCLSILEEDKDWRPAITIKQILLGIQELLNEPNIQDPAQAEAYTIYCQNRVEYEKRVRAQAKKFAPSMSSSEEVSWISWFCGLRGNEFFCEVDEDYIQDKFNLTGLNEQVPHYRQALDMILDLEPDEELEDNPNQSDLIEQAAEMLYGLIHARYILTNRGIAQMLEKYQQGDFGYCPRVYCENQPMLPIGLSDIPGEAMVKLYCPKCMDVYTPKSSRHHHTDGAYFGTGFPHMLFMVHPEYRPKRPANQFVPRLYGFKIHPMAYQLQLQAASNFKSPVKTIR
T9 sequence (P63279+P17980 fused): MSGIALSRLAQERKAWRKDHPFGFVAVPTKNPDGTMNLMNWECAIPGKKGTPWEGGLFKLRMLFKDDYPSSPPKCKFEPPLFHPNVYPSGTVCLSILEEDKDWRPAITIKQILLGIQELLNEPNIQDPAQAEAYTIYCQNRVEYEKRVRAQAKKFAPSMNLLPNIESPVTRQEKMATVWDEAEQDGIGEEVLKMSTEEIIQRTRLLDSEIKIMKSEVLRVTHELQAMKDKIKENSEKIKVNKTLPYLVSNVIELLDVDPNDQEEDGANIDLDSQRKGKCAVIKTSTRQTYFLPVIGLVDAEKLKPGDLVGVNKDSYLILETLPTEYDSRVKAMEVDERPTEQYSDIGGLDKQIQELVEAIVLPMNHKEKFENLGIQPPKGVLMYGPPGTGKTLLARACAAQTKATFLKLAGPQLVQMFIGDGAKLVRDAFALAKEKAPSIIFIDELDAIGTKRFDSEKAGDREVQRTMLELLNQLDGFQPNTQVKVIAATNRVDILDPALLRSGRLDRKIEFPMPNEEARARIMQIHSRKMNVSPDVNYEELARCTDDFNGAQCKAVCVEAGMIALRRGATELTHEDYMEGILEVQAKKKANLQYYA

With `CO[C@H]1[C@@H](O)[C@H](C)C[C@H](C)/C=C/C=C/C=C(\C)[C@@H](c2c[nH]c3c(C)cccc23)C[C@@H]2CC[C@@H](C)[C@@](O)(O2)C(=O)C(=O)N2CCCC[C@H]2C(=O)O[C@H]([C@H](C)C[C@@H]2CC[C@@H](O)[C@H](OC)C2)C[C@H](O)[C@H](C)/C=C(\C)[C@H]1O` [AP21967], the “SUMOylation of p53-FKBP” value in assay [1] (p53-FKBP in combination with Ubc9-FRB and EGFP-SUMO1, AP21967) is recorded as “induced SUMOylation”. In assay [1] (p53-FRB coexpressed with Ubc9-FKBP and EGFP-SUMO1, AP21967 1 μM, western blot α-p53), the “SUMOylation of p53-FRB” value is reported as “strongly enhanced SUMOylation”. In addition, the “SUMOylation of STAT1-FKBP” value in [2] (STAT1-FKBP in combination with Ubc9-FRB and EGFP-SUMO1, AP21967) is “induced SUMOylation”. Moreover, the “SUMOylation of STAT1-FRB” value in assay [2] (STAT1-FRB coexpressed with Ubc9-FKBP and EGFP-SUMO1, AP21967 1 μM, western blot α-STAT1) was “strongly enhanced SUMOylation”.

As for “ERK1: ERK1, protein 2 construct without tag”, the Trans-SUMOylation result in assay [3] (western blot, Table 1) is “+”; in assay [4] (western blot, Table 2), “+”; in assay [5] (setting [11]) it was “−”.

For FLAG-p38α: p38α fused to FLAG tag, the Trans-SUMOylation result in assay [4] (western blot, Table 1) was “+”; in [6] (western blot, Table 1), “+”; in assay [7] it was “−”; in assay [8] (Table 1), “+”; in [9] (Table 1), “−”; in assay [5] (setting [11]), “−”.

For GST-ERK3: ERK3 fused to GST tag, the Trans-SUMOylation entry in [3] (western blot, Table 2) is “−”; in assay [4] (western blot, Table 2) it was “−”; in assay [8] (Table 1), “+”.

As to GST-FOS: FOS fused to GST tag, in assay [6] (western blot, Table 2), the Trans-SUMOylation result was “−”.

For GST-MK2: MK2 fused to GST tag, the Trans-SUMOylation result in assay [3] (MEKK1ca (Table 1B: MEKK1) coexpressed, Table 1) is “++ (MEKK1ca)”; in assay [3] (western blot, Table 1), “+”; in assay [4] (MEKK1 coexpressed, Table 2) it was “++ (MEKK1)”; in [4] (western blot, Table 2) it was “+”; in assay [6] (MEKK1 coexpressed, Table 2), “++ (MEKK1)”; in [6] (western blot, Table 2), “+”. The Trans-SUMOylation result is “−” in assay [7]; “(+/−)” in [8] (Table 2); “(+/−)” in assay [9] (Table 2); “−” in [5] (protein 2 construct coexpressed with p53-U and EGFP-SUMO1 in HEK293, Table 2).

GST-PSMC3: PSMC3 fused to GST tag: the Trans-SUMOylation entry in assay [10] is recorded as “+”; in assay [6] (western blot, Table 2) it was “−”.
